Biological target: GST-Pin1 (UniProt Q13526)
Test: pull-down

Row | Substance | percent reduction of binding against wild type (densitometry) [%] | percent of wild-type binding (densitometry) [%]
1 | FLAG-MEF2C S98/110A (natural protein) | 70 | –
2 | FLAG-MEF2C S98A/S110A/S240A/S388A (natural protein) | – | 10
